Laboratory results published in patent US20250188188A1 (DIANTHUS THERAPEUTICS OPCO, published 2025).

T1: active human C1s purified from human serum (CompTech, Tyler, TX, catalog number A104) (human, UniProt P09871 16-437; P09871 438-688)
T1 construct: Serum-derived material, biotinylated for the ELISA; also called human active C1s; active C1s
T1 sequence 1: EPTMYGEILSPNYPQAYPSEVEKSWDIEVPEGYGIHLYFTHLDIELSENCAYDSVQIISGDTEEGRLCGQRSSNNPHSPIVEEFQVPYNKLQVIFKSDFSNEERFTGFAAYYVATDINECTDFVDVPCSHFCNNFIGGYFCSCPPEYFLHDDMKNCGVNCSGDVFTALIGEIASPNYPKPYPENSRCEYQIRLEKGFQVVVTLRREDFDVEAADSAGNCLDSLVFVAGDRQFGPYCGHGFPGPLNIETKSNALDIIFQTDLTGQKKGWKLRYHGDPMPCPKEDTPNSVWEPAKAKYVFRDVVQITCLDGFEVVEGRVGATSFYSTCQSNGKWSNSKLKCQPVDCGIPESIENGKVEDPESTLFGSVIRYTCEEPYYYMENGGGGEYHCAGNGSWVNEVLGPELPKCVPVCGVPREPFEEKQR
T1 sequence 2: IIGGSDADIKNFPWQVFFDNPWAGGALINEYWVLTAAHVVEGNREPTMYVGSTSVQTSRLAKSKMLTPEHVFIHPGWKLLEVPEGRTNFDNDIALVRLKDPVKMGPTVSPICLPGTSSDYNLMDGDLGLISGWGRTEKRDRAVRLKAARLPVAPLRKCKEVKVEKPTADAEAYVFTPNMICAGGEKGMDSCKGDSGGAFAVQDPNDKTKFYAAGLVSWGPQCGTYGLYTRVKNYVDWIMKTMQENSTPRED


Tests used:
[1] = target: T1, active human C1s purified from human …; test: SPR, antibody captured via anti-human Fc, C1s in solution
[2] = target: T1, active human C1s purified from human …; test: cell-based or functional assay

Binder	Kd [1] [nM]	koff [1] [s⁻¹]	kon [1] [M⁻¹ s⁻¹]	IC50 in the RBC lysis assay (FIG. 4C) [2] [nM]
MAB2 (US20220380483A1) (antibody, V domains shown) VH: QVQLVESGGGLVKPGGSLRLSCAASGFTFSDYYMSWIRQAPGKGLEWVSYISRSGSTKYYADSVKGRFTISRDNAKNSLYLQMNSLRAEDTAVYYCARDETDYALDYWGQGTLVTVSS VL: not shown				61.2
MAB3 (antibody, V domains shown, IgG) VH: QVQLVESGGGLVKPGGSLRLSCAASGFTFSDYYMSWIRQAPGKGLEWVSYISRSGSTKYYADSVKGRFTISRDNAKNSLYLQMNSLRAEDTAVYYCARDETDYAFDEWGQGTLVTVSS VL: DIQMTQSPSSLSASVGDRVTITCQASQDISNYLNWYQQKPGKAPKLLIYDASNLETGVPSRFSGSGSGTDFTFTISSLQPEDIATYYCKQYEDYPLTFGGGTKVEIK	0.932	0.000209	224000	
MAB7 (antibody, V domains shown, IgG) VH: QVQLVESGGGLVKPGGSLRLSCAASGFTFSDYYMSWIRQAPGKGLEWVSYISRSGSTKYYADSVKGRFTISRDNAKNSLYLQMNSLRAEDTAVYYCARDETDYAYDNWGQGTLVTVSS VL: DIQMTQSPSSLSASVGDRVTITCQASQDISNYLNWYQQKPGKAPKLLIYDASNLETGVPSRFSGSGSGTDFTFTISSLQPEDIATYYCQQYEDYPLVFGGGTKVEIK	1.22	0.000223	184000	
MAB15 (antibody, V domains shown, IgG) VH: QVQLVQSGAEVKKPGASVKVSCKVSGDTLTELSMHWVRQAPGKGLEWMGTFDPEEGETIYAQKFQGRVTMTEDTSTDTAYMELSSLRSEDTAVYYCVTKGLAWLPYYSWGQGTLVTVSS VL: not shown	6.39	0.000737	115000	
MAB24 (antibody, V domains shown, IgG) VH: EVQLVESGGGVVRPGGSLRLSCAASGFTFDDYGMSWVRQAPGKGLEWVSGINWEGGSTGYADSVKGRFTISRDNAKNSLYLQMNSLRAEDTALYYCARDEQLGGTTYYYYYMDVWGKGTTVTVSS VL: DIQMTQSPSSLSASVGDRVTITCRASQGIRNDLGWYQQKPGKAPKRLIYTASNLQSGVPSRFSGSGSGTEFTLTISSLQPEDFATYYCLQTNIYPLTFGGGTKVEIK	3.49	0.000328	93900	
MAB30 (antibody, V domains shown, IgG) VH: EVQLVESGGGVVRPGGSLRLSCAASGFTFDDYGMSWVRQAPGKGLEWVSGINWEGGSTGYADSVKGRFTISRDNAKNSLYLQMNSLRAEDTALYYCARDEQLGGRHYYYYYMDVWGKGTTVTVSS VL: DIQMTQSPSSLSASVGDRVTITCRASQGIRNDLGWYQQKPGKAPKRLIYTASNLQSGVPSRFSGSGSGTEFTLTISSLQPEDFATYYCLQYNAYPLIFGGGTKVEIK	6.01	0.000688	115000	

Further binders by falling Kd [1], results first:

Kd [1] [nM]	koff [1] [s⁻¹]	kon [1] [M⁻¹ s⁻¹]	IC50 in the RBC lysis assay (FIG. 4C) [2] [nM]	Binder
6.52	0.00055	84500		MAB26 (antibody, V domains shown, IgG) VH: EVQLVESGGGVVRPGGSLRLSCAASGFTFDDYGMSWVRQAPGKGLEWVSGINWEGGSTGYADSVKGRFSISRDNAKNSLYLQMNSLRAEDTALYYCARDEQLGGLKYYYYYMDVWGKGTTVTVSS VL: DIQMTQSPSSLSASVGDRVTITCRASQGIRNDLGWYQQKPGKAPKRLIYTASNLQSGVPSRFSGSGSGTEFTLTISSLQPEDFATYYCLQTNIYPLTFGGGTKVEIK
5.57	0.000621	111000		MAB25 (antibody, V domains shown, IgG) VH: EVQLVESGGGVVRPGGSLRLSCAASGFTFDDYGMSWVRQAPGKGLEWVSGINWEGGSTGYADSVKGRFTISRDNAKNSLYLQMNSLRAEDTALYYCARDEQLGGIKYYYYYMDVWGKGTTVTVSS VL: DIQMTQSPSSLSASVGDRVTITCRASQGIRNDLGWYQQKPGKAPKRLIYTASNLQSGVPSRFSGSGSGTEFTLTISSLQPEDFATYYCLQYKQYPLTFGGGTKVEIK
4.17	0.000335	80400		MAB22 (antibody, V domains shown, IgG) VH: EVQLVESGGGVVRPGGSLRLSCAASGFTFDDYGMSWVRQAPGKGLEWVSGINWEGGSTGYADSVKGRFTISRDNAKNSLYLQMNSLRAEDTALYYCARDEQLGGKYYYYYYMDVWGKGTTVTVSS VL: DIQMTQSPSSLSASVGDRVTITCRASQGIRNDLGWYQQKPGKAPKRLIYTASNLQSGVPSRFSGSGSGTEFTLTISSLQPEDFATYYCLQYRSHPLTFGGGTKVEIK
2.89	0.000409	141000		MAB28 (antibody, V domains shown, IgG) VH: EVQLVESGGGVVRPGGSLRLSCAASGFTFDDYGMSWVRQAPGKGLEWVSGINWEGGSTGYADSVKGRFSISRDNAKNSLYLQMNSLRAEDTALYYCARDEQLGGLKYYYYYMDVWGKGTTVTVSS VL: DIQMTQSPSSLSASVGDRVTITCRASQGIRNDLGWYQQKPGKAPKRLIYTASNLQSGVPSRFSGSGSGTEFTLTISSLQPEDFATYYCLQYHSYPLRFGGGTKVEIK
1.83	0.000215	118000		MAB2 (antibody, V domains shown, IgG) VH: QVQLVESGGGLVKPGGSLRLSCAASGFTFSDYYMSWIRQAPGKGLEWVSYISRSGSTKYYADSVKGRFTISRDNAKNSLYLQMNSLRAEDTAVYYCARDETDYGWDYWGQGTLVTVSS VL: DIQMTQSPSSLSASVGDRVTITCQASQDISNYLNWYQQKPGKAPKLLIYDASNLETGVPSRFSGSGSGTDFTFTISSLQPEDIATYYCKQYEDYPLTFGGGTKVEIK
1.22	0.000232	190000		MAB4 (antibody, V domains shown, The IgG4 YTE form is entered separately as IgG4-MAB4) VH: QVQLVESGGGLVKPGGSLRLSCAASGFTFSDYYMSWIRQAPGKGLEWVSYISRSGSTKYYADSVKGRFTISRDNAKNSLYLQMNSLRAEDTAVYYCARDESQYALDYWGQGTLVTVSS VL: DIQMTQSPSSLSASVGDRVTITCQASQDISNYLNWYQQKPGKAPKLLIYDASNLETGVPSRFSGSGSGTDFTFTISSLQPEDIATYYCHQYEDYPLTFGGGTKVEIK
0.95	0.000255	268000		MAB1 (antibody, V domains shown, 191g-derived clone expressed as IgG in 293 cells) VH: QVQLVESGGGLVKPGGSLRLSCAASGFTFSDYYMSWIRQAPGKGLEWVSYISRSGSTKYYADSVKGRFTISRDNAKNSLYLQMNSLRAEDTAVYYCARDQEDYALDYWGQGTLVTVSS VL: DIQMTQSPSSLSASVGDRVTITCQASQDISNYLNWYQQKPGKAPKLLIYDASNLETGVPSRFSGSGSGTDFTFTISSLQPEDIATYYCEQYEDYPLTFGGGTKVEIK
0.306	0.000127	414000		MAB9 (antibody, V domains shown, The IgG4 YTE form is entered separately as IgG4-MAB9) VH: QVQLVESGGGLVKPGGSLRLSCAASGFTFSDYYMSWIRQAPGKGLEWVSYISRSGSTKYYADSVKGRFTISRDNAKNSLYLQMNSLRAEDTAVYYCARDENYALDWWGQGTLVTVSS VL: DIQMTQSPSSLSASVGDRVTITCQASQDISNYLNWYQQKPGKAPKLLIYDASNLETGVPSRFSGSGSGTDFTFTISSLQPEDIATYYCQHYEDYPLTFGGGTKVEIK
